From article PMC7867654

What was measured:
Test in all cases: EMSA
[1] = target: PRC2-AEBP2 (PRC2.2, 5-mer) (Homo sapiens, UniProt Q15910-2;O75530;Q15022;Q09028;Q6ZN18 1-751;1-441;1-739;1-425;1-517)
[2] = target: T1, PRC2-PHF19 (PRC2.1, 5-mer) (Homo sapiens, UniProt Q15910-2;O75530;Q15022;Q09028;Q5T6S3 1-751;1-441;1-739;1-425;1-580)
[3] = target: T1, PRC2-PHF19 (PRC2.1, 5-mer); remark: listed apart in the source

Binder | binding result [1] | binding result [2] | binding signal [3]
48 bp LHX6 (dsDNA) DNA 1: GCGCTAGGAGCATCCGCCCGCTCGACGCGCGCCGGGAAATTGAAGCGG DNA 2: CCGCTTCAATTTCCCGGCGCGCGTCGAGCGGGCGGATGCTCCTAGCGC | no binding | – | –
36 bp LHX6 (dsDNA) DNA 1: TCCGCCCGCTCGACGCGCGCCGGGAAATTGAAGCGG DNA 2: CCGCTTCAATTTCCCGGCGCGCGTCGAGCGGGCGGA | no binding | – | –
36 bp ATrich (dsDNA) DNA 1: TATATAAATTAATATATAATTATATTATATTAAAAT DNA 2: ATTTTAATATAATATAATTATATATTAATTTATATA | no binding | – | –
96 bp (dsDNA) DNA 1: TGAATTAGTGTCAATATCCCTACTTCAATTTCCTAGTATATATTAAGTAGGTAGATGCTCCTAGTACTCTGGGTTTTATTTTCTCAACCACCACCA DNA 2: TGGTGGTGGTTGAGAAAATAAAACCCAGAGTACTAGGAGCATCTACCTACTTAATATATACTAGGAAATTGAAGTAGGGATATTGACACTAATTCA | – | binds | –
24 bp LHX6 (dsDNA) DNA 1: ACGCGCGCCGGGAAATTGAAGCGG DNA 2: CCGCTTCAATTTCCCGGCGCGCGT | no binding | – | ~5 fold tighter than 24 bp ATrich; weaker than 48 bp
24 bp ATrich (dsDNA) DNA 1: TATATAATTATATTATATTAAAAT DNA 2: ATTTTAATATAATATAATTATATA | no binding | – | ~5 fold weaker than 24 bp LHX6
12 bp GC (dsDNA) DNA 1: GGGCGGCCGCCC DNA 2: GGGCGGCCGCCC | – | no binding | –
48 bp ATrich (dsDNA) DNA 1: ATATTTTATATATATATAAATTAATATATAATTATATTATATTAAAAT DNA 2: ATTTTAATATAATATAATTATATATTAATTTATATATATATAAAATAT | no binding | – | –
96 bp ATrich (dsDNA) DNA 1: TATATTTTATATATATATAAATTAATATATAATTATATTATATTAAAATTAATATTATATTTAAATTATTATATATATATAAATAATTTAATTATA DNA 2: TATAATTAAATTATTTATATATATATAATAATTTAAATATAATATTAATTTTAATATAATATAATTATATATTAATTTATATATATATAAAATATA | – | binds | –
